Measurements: US20230381328A1, “COMPOUND FOR THE PREVENTION OR TREATMENT OF MYASTHENIA GRAVIS” (ABLEVIA BIOTECH GMBH, priority 2020, published 2023)
Where no end group is shown, it is not given here.

Target: monoclonal antibody mAB 198
Test: peptide microarray, fluorescence, cyclic peptide

Binder	relative signal [%]
RLRVNPADY (also: cyclic peptide, ring type and places not given here)	61.3
LRVNPADYG (also: cyclic peptide, mode of cyclisation not given here)	45.1
WIDVRLRGNPA (also: cyclic peptide, mode of cyclisation not given here)	43.2
RLNPADY (also: cyclic peptide, ring type and places not given here) [RLNPADY, cyclic mimotope]	42.3
RFNPADY (also: cyclic peptide, ring type and places not given here) [RFNPADY, cyclic mimotope]	37.5
RLRLNPADY (also: cyclic peptide, ring type and places not given here)	37.3
RLRGNPADY (also: cyclic peptide, ring type and places not given here)	32.7
DVRLRINPADY (also: cyclic peptide, mode of cyclisation not given here)	31.4
DVRLRVNPADY (also: cyclic peptide, mode of cyclisation not given here)	30.2
RINPADY (also: cyclic peptide, ring type and places not given here) [RINPADY, cyclic mimotope]	28.9
LRLNPADYG (also: cyclic peptide, mode of cyclisation not given here)	28.6
LRRNPAD (also: cyclic peptide, mode of cyclisation not given here) [LRRNPAD, cyclic mimotope]	28.2
SLRINPADY (also: cyclic peptide, mode of cyclisation not given here)	28
DVRLRFNPADY (also: cyclic peptide, mode of cyclisation not given here)	27.7
NPADYRG (also: cyclic peptide, ring type and places not given here) [NPADYRG, cyclic mimotope]	27.4
SLRVNPADY (also: cyclic peptide, mode of cyclisation not given here)	26.5
RLRINPADY (also: cyclic peptide, ring type and places not given here)	25.5
GGSLRINPADY (also: cyclic peptide, mode of cyclisation not given here)	25.4
DVRLRGNPADY (also: cyclic peptide, mode of cyclisation not given here)	25
WNPADYR (also: cyclic peptide, mode of cyclisation not given here) [WNPADYR, cyclic mimotope]	24.9
RLRYNPADY (also: cyclic peptide, ring type and places not given here)	24.5
RGNPADY (also: cyclic peptide, ring type and places not given here) [RGNPADY, cyclic mimotope]	23.8
RRNPADY (also: cyclic peptide, ring type and places not given here) [RRNPADY, cyclic mimotope]	23.5
LRRNPADYG (also: cyclic peptide, mode of cyclisation not given here)	23.4

Binder	relative signal [%]
RINPADYGG (also: cyclic peptide, ring type and places not given here)	23.1
LRINPADYG (also: cyclic peptide, mode of cyclisation not given here)	22.8
GGSLRVNPADY (also: cyclic peptide, mode of cyclisation not given here)	22.5
RGNPADYGG (also: cyclic peptide, ring type and places not given here)	22.2
SLRLNPADY (also: cyclic peptide, mode of cyclisation not given here)	21.8
DVRLRPNPADY (also: cyclic peptide, mode of cyclisation not given here)	21.3
RLRFNPADY (also: cyclic peptide, ring type and places not given here)	21.3
WNPADYP (also: cyclic peptide, mode of cyclisation not given here) [WNPADYP, cyclic mimotope]	21.1
RYNPADY (also: cyclic peptide, ring type and places not given here) [RYNPADY, cyclic mimotope]	20.2
GGSLRGNPADY (also: cyclic peptide, mode of cyclisation not given here)	19.6
NPADYGR (also: cyclic peptide, ring type and places not given here) [NPADYGR, cyclic mimotope]	19.5
RVNPADY (also: cyclic peptide, ring type and places not given here) [RVNPADY, cyclic mimotope]	18.7
GSLRWNPADYR (also: cyclic peptide, mode of cyclisation not given here)	16.2
NPADYGH (also: cyclic peptide, mode of cyclisation not given here) [NPADYGH, cyclic mimotope]	15.8
RPNPADY (also: cyclic peptide, ring type and places not given here) [RPNPADY, cyclic mimotope]	15.6
SLRGNPADY (also: cyclic peptide, ring type and places not given here)	15.4
VRLRRNPAD (also: cyclic peptide, mode of cyclisation not given here)	14.7
RTNPADY (also: cyclic peptide, ring type and places not given here) [RTNPADY, cyclic mimotope]	14.6
GGSLRFNPADY (also: cyclic peptide, mode of cyclisation not given here)	14.5
RLYWNPADY (also: cyclic peptide, ring type and places not given here)	13.7
GNPADYGGI (also: cyclic peptide, mode of cyclisation not given here)	13.7
SLRFNPADY (also: cyclic peptide, ring type and places not given here)	13.6
VRLRVNPADYG (also: cyclic peptide, mode of cyclisation not given here)	13.4
